Biological target: CCR5L (designed (synthetic))
Experiment: MST; 100 uM ZnCl2; MST: 20 mM Tris-HCl pH 7.5, 200 mM NaCl, 0.01% Tween-20, 100 uM ZnCl2, 0.1 mM TCEP; TZAP arrays: 20 mM Tris-HCl pH 7.0, 50 mM NaCl, 0.1% Tween-20, 100 uM ZnCl2, 0.1 mM TCEP; temperature not stated
Settings: protein: recombinant; tags: His-SUMO cleaved by Ulp1; Cy5-maleimide on terminal Cys; hairpin

Sequence of CCR5L (designed (synthetic)) (chain, as listed by the source): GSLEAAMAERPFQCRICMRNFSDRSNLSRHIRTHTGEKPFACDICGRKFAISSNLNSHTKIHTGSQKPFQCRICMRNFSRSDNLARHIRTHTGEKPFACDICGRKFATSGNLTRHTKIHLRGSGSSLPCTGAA

B1: ccr5l-wt (structured_DNA)
DNA: GGCTTCCGCTGTCATCCTCATCAGGTTTTCCTGATGAGGATGACAGCGGAAGCC
  Kd: 5.7 nM

— paper PMC11793764, “A universal method for the purification of C2H2 zinc finger arrays”
